The values that follow come from patent publication US20190060405A1.

This test deals with rat CSF1-R (CD115) expressed on pDCs (rat) (UniProt Q00495). The test is described as follows: cell-based or functional assay.
UniProt Q00495, sequence (Q00495 20-978): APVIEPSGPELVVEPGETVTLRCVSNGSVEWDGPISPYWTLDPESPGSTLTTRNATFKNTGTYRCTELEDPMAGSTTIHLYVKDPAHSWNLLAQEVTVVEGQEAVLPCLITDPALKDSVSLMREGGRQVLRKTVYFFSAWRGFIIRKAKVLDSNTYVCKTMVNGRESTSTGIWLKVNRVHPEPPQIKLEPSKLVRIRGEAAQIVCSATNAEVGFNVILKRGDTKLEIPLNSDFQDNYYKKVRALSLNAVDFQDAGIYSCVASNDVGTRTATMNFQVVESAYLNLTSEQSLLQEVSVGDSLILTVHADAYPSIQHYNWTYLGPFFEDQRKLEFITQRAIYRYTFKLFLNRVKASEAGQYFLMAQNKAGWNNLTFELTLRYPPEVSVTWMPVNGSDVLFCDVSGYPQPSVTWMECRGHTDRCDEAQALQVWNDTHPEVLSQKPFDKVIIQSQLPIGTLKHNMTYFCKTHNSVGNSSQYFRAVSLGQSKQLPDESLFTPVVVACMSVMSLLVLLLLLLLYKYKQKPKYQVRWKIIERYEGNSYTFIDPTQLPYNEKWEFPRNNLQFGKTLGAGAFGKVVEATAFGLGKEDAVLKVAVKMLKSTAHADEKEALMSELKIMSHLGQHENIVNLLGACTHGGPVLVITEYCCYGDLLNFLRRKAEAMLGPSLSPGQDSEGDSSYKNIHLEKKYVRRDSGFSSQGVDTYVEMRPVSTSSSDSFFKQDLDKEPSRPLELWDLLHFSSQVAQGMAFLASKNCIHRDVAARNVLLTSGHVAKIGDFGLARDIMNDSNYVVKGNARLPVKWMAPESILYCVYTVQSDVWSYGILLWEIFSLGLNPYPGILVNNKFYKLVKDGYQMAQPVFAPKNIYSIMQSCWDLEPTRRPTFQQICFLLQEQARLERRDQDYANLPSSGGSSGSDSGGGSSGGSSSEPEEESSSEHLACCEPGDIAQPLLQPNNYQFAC

As for “Rat M-CSF protein (ab56288, ABCAM) (from UniProt Q8JZQ0 33-187) (ligand)”, the suppression of CD4+CD25- T cells proliferation (MLR, CFSE) came out at 93.5%.
